# B1: Hairpin Ribozyme (parent)
# chain: GUCCUCUUUCACGUGCGCGUGAAAGAGAGAAGUGAACCAGAGAAACACACGUUGUGGUAUAUUACCUGGUA
# Variants of: B1
# Assay: self-cleavage, relative activity (ratio to wild type); higher = more cleavage; co-transcriptional
row,Variant,self-cleavage
1,A24U C66A,0.137
2,G19C A43C,0.11
3,U60C C65U,0.909
4,C12U G13U,0.828
5,U5C A47C,0.208
6,U5C A24G,0.453
7,A22G G57A,0.17
8,A30U U70C,0.123
9,G56C C65G,0.0604
10,G17C A47C,0.187
11,C16A G29U,0.128
12,A26G G57A,0.196
13,U9G C16A,0.668
14,C16G A45C,0.152
15,A39C U62A,0.159
16,G32C U55C,0.0178
17,G54A C66G,0.113
18,G54C A64G,0.18
19,U52G U58G,0.498
20,U33C U63A,0.142
21,C18G U20A,0.772
22,U60A,0.849
23,U9A A11C,0.478
24,C48U G57C,0.163

row,Variant,self-cleavage
1,A11U G15A,0.849
2,C37A A45C,0.189
3,U52A U67C,0.239
4,C10G C65A,0.746
5,U63G U70G,0.182
6,C37U A59U,0.16
7,C46A U62G,0.0929
8,U7A A59G,0.194
9,C37A U53A,0.356
10,G57C G68U,0.172
11,C10U G13A,0.662
12,U20C G68C,0.219
13,U7C C38A,0.185
14,C12G G19A,0.808
15,C6G A11U,0.314
16,G1A G29C,0.196
17,A45C C46U,0.067
18,G13U C48G,0.106
19,U9C C12G,0.502
20,G29C A64C,0.133
21,C66A U70G,0.176
22,U8G A22C,0.556
23,U20G U52G,0.772
24,U9A C38G,0.145

row,Variant,self-cleavage
1,G42A U70C,0.128
2,G25C A41G,0.298
3,A43U G51U,0.0946
4,G42A U67G,0.125
5,U9G C65U,0.122
6,C48G G69A,0.224
7,A45U G54U,0.0699
8,G25C U52G,0.356
9,A36C G42U,0.116
10,A39G C66U,0.194
11,U8A A31U,0.135
12,U60A A61C,0.133
13,A31G A39U,0.105
14,U5G,0.324
15,G13A G57U,0.205
16,U14A C50A,0.13
17,C12U G56U,0.193
18,A26G U53A,0.814
19,A24G A71G,1.07
20,G29A G34C,0.248
21,A11G A43U,0.199
22,G13U C50U,0.268
23,A23C G51C,0.804
24,A43G G69A,0.0947

row,Variant,self-cleavage
1,C38A A41U,0.286
2,C16A U62C,0.276
3,U9C U63G,0.169
4,C16G C18U,0.823
5,C6U A31U,0.101
6,U7G A45G,0.102
7,U5A A71C,0.884
8,U7A G29U,0.178
9,A59U G68A,0.231
10,C46U U70C,0.161
11,U7A U9C,0.714
12,U55C G56A,0.0854
13,A26G G69C,0.403
14,C12U A36G,1.17
15,G19A A61U,0.147
16,G19U U33C,0.202
17,A30G U62G,0.112
18,G15U U52C,0.911
19,U14C G27A,0.423
20,A61U U70G,0.261
21,G17C A44U,0.0541
22,C4U A45G,0.199
23,U2C A44G,0.275
24,C6G A24U,0.331

row,Variant,self-cleavage
1,A41G C48U,0.162
2,A30C A49U,0.154
3,C6A C38G,0.149
4,U2C C46U,0.133
5,G40U C48G,0.189
6,G51C A61G,0.138
7,G15C G57C,0.137
8,A47G U58C,0.17
9,U55A A71U,0.18
10,C10A A41C,0.752
11,U8G U20C,0.425
12,C18G G32A,0.154
13,C66A G69C,0.239
14,A36G C66G,0.288
15,U9G A64G,0.478
16,U2G A31C,0.0758
17,G13A U60G,0.374
18,A26U G56U,0.279
19,U14A G69U,0.205
20,U52C U55G,0.301
21,A23C U63A,0.238
22,A11G A49C,0.124
23,A45C U52C,0.176
24,G15A A44U,0.196

row,Variant,self-cleavage
1,C3G A43G,0.0516
2,G1A U14G,0.195
3,C37U G40C,0.172
4,G19A A22C,0.677
5,C4U C38A,0.13
6,G17U G19C,0.846
7,C6G U52A,0.433
8,C65U U70C,0.111
9,A45C G56C,0.312
10,U5A U9C,0.179
11,C3A C10A,0.461
12,G27C A44C,0.0898
13,U7A G19C,0.711
14,A24G G54U,0.607
15,U2G G34C,0.736
16,C12A A24U,0.584
17,C4U U62G,0.181
18,U33A A44U,0.141
19,A23U A30U,0.0692
20,U62A G68U,0.28
21,A11U U14C,0.964
22,G15C G51U,0.91
23,U14G G40C,0.111
24,A44U A71U,0.256

row,Variant,self-cleavage
1,U14A G25C,0.418
2,C38G C66G,0.0755
3,G17U A39U,0.337
4,A28U A35U,0.505
5,G1U U63C,0.181
6,C46U U58C,0.221
7,U14A A45G,0.0459
8,A31U U60A,0.0868
9,U7A G17A,0.865
10,U7C C50G,0.229
11,A26C U33A,0.23
12,A35U C38G,0.235
13,G17A A41U,1.38
14,C46A A64C,0.0755
15,G19C A41C,1.24
16,A71G,1.04
17,C4G,0.225
18,U9G C18U,0.793
19,A22C A24G,0.717
20,A22C G54A,0.587
21,C12A G40A,0.237
22,U9A A23G,0.559
23,C16G C50A,0.198

# From the RNAGym collection of RNA variant scans (doi:10.7554/elife.80360)
